How the values were obtained:
Format in all cases: biochemical
EphA3 = target: T1, EphA3 (Homo sapiens, UniProt P29320); assay: TR-FRET kinase assay, EphA3; conditions: Kinase Concentration 0.5 nM; 50 nM ULight-labeled substrate, 200 micromolar ATP, 2 hours
T1 sequence (P29320 21-983): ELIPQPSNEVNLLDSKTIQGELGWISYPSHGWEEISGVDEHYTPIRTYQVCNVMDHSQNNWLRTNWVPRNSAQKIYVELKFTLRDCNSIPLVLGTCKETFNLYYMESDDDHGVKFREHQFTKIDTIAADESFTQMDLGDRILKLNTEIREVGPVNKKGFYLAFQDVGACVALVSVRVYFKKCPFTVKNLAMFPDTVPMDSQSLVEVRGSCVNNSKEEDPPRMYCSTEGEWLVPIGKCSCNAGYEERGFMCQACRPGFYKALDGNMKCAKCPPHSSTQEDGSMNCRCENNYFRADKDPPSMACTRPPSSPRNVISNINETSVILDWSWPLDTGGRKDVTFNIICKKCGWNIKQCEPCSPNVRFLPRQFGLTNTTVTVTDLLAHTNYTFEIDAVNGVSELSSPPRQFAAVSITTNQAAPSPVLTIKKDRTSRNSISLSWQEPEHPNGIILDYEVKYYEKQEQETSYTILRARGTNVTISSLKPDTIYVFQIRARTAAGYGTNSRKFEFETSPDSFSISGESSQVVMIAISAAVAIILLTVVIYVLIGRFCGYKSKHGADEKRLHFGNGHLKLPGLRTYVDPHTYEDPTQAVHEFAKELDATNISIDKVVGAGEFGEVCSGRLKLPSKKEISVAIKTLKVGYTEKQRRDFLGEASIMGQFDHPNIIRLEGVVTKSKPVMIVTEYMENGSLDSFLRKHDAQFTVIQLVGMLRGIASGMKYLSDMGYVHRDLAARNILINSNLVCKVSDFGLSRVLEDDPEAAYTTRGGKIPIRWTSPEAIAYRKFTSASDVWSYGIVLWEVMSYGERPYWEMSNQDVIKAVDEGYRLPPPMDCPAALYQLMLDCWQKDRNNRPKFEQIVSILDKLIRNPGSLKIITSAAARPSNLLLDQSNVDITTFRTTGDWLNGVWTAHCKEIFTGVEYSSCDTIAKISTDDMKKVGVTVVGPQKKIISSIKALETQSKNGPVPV
Procedure: (§1) TR-FRET kinase assays are performed under standardized conditions: various individual kinases are incubated with 50 nM of kinase substrate BRB1 labeled with the TR-FRET acceptor dye ULight (PerkinElmer) and 200 micromolar ATP in 10 μL of kinase assay buffer (50 mM HEPES pH7.5, 10 mM MgCl2, 3 mM MnCl2, 1 mM EGTA, 2 mM DTT and 0.01% Tween-20) for 2 hours at room temperature. Reactions are stopped with EDTA, and anti-phospho-tyrosine antibodies (clone PT66) labeled with the TR-FRET europium chelate donor dye are added to a final concentration of 2 nM in a final volume of 20 μL. The TR-FRET signal emitted at 665 nm is read one hour after the addition of antibodies using a TR-FRET plate reader such as the Envision® Multilabel Plate reader (PerkinElmer). The emitted signal at 665 nm is proportional to the extent of peptide phosphorylation, Control reactions indicative of background are performed excluding ATP from the reaction.
(§2) Assay conditions are identical to those used described for FIG. 1.

RET = RET (Homo sapiens, UniProt P07949); assay: TR-FRET kinase assay, RET; conditions: Kinase Concentration 0.5 nM; 50 nM ULight-labeled substrate, 200 micromolar ATP, 2 hours
Procedure: as §1, §2

EphB1 = target: T2, EphB1 (Homo sapiens, UniProt P54762); assay: TR-FRET kinase assay, EphB1; conditions: Kinase Concentration 0.5 nM; 50 nM ULight-labeled substrate, 200 micromolar ATP, 2 hours
T2 sequence (P54762 18-984): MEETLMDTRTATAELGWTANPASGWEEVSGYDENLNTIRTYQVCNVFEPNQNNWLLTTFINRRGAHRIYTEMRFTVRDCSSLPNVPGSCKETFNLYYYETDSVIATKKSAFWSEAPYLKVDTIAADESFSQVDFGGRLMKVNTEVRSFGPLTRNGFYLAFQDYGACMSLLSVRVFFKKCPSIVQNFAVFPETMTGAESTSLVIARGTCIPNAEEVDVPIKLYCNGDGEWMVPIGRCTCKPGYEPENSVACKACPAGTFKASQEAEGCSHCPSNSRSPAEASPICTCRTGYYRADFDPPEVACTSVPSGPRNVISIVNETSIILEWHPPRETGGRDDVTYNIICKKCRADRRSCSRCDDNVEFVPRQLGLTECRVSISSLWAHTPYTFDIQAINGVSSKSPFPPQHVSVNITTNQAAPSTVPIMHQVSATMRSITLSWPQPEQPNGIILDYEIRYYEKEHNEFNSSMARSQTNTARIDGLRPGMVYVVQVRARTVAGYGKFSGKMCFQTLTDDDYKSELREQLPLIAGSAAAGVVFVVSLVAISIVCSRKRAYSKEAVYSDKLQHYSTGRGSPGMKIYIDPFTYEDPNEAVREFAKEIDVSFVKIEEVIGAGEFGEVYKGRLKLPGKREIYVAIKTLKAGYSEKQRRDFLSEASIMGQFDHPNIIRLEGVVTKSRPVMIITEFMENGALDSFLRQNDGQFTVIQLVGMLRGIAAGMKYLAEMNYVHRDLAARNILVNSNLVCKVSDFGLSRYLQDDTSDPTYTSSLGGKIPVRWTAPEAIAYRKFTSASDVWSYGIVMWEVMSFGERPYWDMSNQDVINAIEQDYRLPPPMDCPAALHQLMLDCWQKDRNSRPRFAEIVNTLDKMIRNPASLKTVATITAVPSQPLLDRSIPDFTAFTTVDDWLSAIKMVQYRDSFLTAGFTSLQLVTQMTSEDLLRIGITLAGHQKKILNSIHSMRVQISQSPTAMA
Procedure: as §1, §2

CSK = CSK (Homo sapiens, UniProt P41240); assay: TR-FRET kinase assay, CSK; conditions: Kinase Concentration 20 nM; 50 nM ULight-labeled substrate, 200 micromolar ATP, 2 hours
Chain of CSK (P41240 whole entry, species assumed): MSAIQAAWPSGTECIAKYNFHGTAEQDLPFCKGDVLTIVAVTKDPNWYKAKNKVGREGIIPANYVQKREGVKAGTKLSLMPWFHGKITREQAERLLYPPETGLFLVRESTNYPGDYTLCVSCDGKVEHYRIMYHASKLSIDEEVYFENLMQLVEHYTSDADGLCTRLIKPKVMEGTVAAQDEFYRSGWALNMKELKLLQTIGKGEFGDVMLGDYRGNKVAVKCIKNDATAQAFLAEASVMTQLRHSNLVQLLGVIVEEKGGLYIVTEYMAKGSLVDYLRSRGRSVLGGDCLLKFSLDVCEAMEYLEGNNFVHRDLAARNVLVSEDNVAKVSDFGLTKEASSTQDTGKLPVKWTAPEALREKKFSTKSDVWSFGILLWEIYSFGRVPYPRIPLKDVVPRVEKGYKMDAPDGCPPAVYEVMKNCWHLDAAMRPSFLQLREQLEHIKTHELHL
Procedure: as §1, §2

YES = YES (Homo sapiens, UniProt P07947); assay: TR-FRET kinase assay, YES; conditions: Kinase Concentration 0.25 nM; 50 nM ULight-labeled substrate, 200 micromolar ATP, 2 hours
Chain of YES (P07947 whole entry, species assumed): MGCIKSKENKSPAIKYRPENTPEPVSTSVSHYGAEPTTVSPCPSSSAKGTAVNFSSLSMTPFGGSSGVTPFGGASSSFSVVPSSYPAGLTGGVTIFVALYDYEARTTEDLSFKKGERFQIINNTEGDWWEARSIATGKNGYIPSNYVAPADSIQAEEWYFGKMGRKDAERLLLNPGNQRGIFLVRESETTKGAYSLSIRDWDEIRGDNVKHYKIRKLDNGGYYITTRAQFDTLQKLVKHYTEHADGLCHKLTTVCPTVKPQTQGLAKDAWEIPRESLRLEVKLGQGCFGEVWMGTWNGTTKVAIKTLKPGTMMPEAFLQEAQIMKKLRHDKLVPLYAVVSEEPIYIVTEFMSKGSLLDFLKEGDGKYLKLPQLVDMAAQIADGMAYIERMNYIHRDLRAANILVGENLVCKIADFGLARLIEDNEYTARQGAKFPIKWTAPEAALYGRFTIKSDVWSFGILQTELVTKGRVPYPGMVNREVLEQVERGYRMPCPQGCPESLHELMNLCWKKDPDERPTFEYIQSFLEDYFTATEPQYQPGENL
Procedure: as §1, §2

For “C AYE AYE AYE K EYA EYA EYA K AYA EYE R (CAYEAYEAYEKEYAEYAEYAKAYAEYER; tyrosine kinase substrate peptide) [BRB1]”, the “Signal to Noise ratio with BRB1 Peptide” value (EphA3) was 22.4, the “Signal to Noise ratio with BRB1 Peptide” value (RET) was 20.3 and the “Signal to Noise ratio with BRB1 Peptide” value (EphB1) was 29.9. The “Signal to Noise ratio with BRB1 Peptide” value (CSK) was 27.2 and the “Signal to Noise ratio with BRB1 Peptide” value (YES) was 28.0.
